This note sets out measurements from patent US20260234290.

Holding throughout (assay): BLI
(In BLI a coated tip is dipped into the sample, and binding shifts an interference pattern.)

One data set relates to 2B12 Fab. Particulars: 2 uM Fab; RT; weak binder; printed as second 3B12 in Table 4, 2B12 in text.
A further data set has as its system 2C11 Fab. The following applies: 2 uM Fab; RT; weak binder.
In a further data set the test system is 3B11 Fab. The following applies: 2 uM Fab; RT; described as weak binding.
Another data set deals with 3B12 Fab. The following applies: 2 uM Fab; RT; described as weak binding.
The next data set has as its system 3C8 Fab. The following applies: 2 uM Fab; RT; described as weak binding.

Turning to “CATTTCCCGTAAATC (double strand) [CS3D (cyclic STAT3 decoy)]”, the koff (as a rule, the rate constant with which the complex falls apart) in the data set with 2B12 Fab was 0.37 s⁻¹; in the data set with 2C11 Fab, 0.419 s⁻¹; in the data set with 3B11 Fab, 0.205 s⁻¹; in the data set on 3B12 Fab it was 0.0764 s⁻¹; in the data set with 3C8 Fab, 0.277 s⁻¹.
